Laboratory results taken from KR20230078152A (dated 2023).

Target: human PSMA (prostate-specific membrane antigen) expressed on LNCaP cells (human, UniProt Q04609 1-750)
Test: cell-based or functional assay

Chain of human PSMA (prostate-specific membrane antigen) expressed on LNCaP cells (Q04609 whole entry): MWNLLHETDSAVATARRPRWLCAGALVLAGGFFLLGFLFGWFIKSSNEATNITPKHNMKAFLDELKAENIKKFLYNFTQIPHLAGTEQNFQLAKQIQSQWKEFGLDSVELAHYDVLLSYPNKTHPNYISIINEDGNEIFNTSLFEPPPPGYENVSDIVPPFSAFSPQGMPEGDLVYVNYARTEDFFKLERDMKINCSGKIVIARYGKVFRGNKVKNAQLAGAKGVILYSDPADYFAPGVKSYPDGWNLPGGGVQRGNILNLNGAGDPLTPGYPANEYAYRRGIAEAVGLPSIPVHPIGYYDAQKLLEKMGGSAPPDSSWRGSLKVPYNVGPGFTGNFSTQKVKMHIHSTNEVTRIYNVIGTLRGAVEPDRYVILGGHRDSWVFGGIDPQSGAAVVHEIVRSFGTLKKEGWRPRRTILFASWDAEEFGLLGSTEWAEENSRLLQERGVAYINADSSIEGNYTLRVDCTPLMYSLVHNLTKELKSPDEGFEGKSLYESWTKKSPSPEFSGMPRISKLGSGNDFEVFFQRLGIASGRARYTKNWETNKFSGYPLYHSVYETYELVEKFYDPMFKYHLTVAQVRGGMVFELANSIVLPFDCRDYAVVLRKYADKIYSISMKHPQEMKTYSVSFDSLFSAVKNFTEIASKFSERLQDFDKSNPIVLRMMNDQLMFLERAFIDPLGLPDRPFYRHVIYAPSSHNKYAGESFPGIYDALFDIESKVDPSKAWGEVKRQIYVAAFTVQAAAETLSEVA

B1: PSMA 타겟 항체-약물 접합체 (PSMA target antibody-MMAE conjugate) (other, DAR 8.36)
VH: EVQLQQSGPELVKPGASVKISCKASGYAFSSSWMNWVKQRPGQGLEWIGRIYPADGDTNYNGKFKGKATLTADKSSSTAYMQLSSLTSVDSAVYFCARCGWDGGVYYAMDYWGQGTSVTVSS
VL: DIVMTQSPASLAVSLGQRATISCRASKSVTTSGYSYMHWYQQKPGQPPKLLIYLASNLESGVPARFSGSGSGTDFTLNIHPVEEEDAATYYCQHSRELPRTFGGGTKLEIK
modifications: MMAE conjugated through a VC-PAB linker (antibody MMAE Conjugation Kit), DAR 8.36; sites not stated
**Q.** With B1 as the binder, how does the “cytotoxicity on LNCaP cells (Cell counting kit-8, 72 h), IC50” value read?
**A.** 500 pM
